Source: the supplement of paper PMC9170038

Tested on: MS2 coat protein
Assay: apparent KD of MS2 coat protein; designed switch direction (-1 OFF switch, 1 ON switch): -1; higher = weaker reporter binding
Method in brief: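 Designed RNA switches with common flanks were transcribed on Illumina chips by stalled E. coli RNA polymerase and titrated with SNAP-549-labelled MS2 coat protein, from 0.7 or 1.5 nM doubling to 3 µM, in Tris-HCl pH 7.5 buffer with KCl, MgCl2, BSA, DTT, tRNA and Tween-20. Steps lasted 0.8–1.5 h (lowest) to 10–20 min (highest). Titrations ran without input, with 200 uM small-molecule ligand, or with an oligonucleotide input. Normalised cluster fluorescence was curve-fitted, and apparent KD is the per-design median over clusters.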

[1] = Eterna round: R95, input ligand: FMN 200 uM
[2] = Eterna round: R95, input ligand: microRNA oligo, concentration not stated
[3] = Eterna round: R95, input ligand: none
[4] = input ligand: microRNA oligo, concentration not stated

Sequence: CCGGAUUAGUAGGAUAUAGGAGUCGAUAGACACCUAGAAGGACUAACAUGAGGAUCACCCAUGUGUCCUACCGG [Mod of Eli 19 - Jieux - Exclusion 6] (Eterna round: R97, puzzle: Exclusion 6)
- apparent KD of MS2 coat protein (input ligand: FMN 200 uM): 39 nM
- apparent KD of MS2 coat protein (input ligand: none): 16.7 nM

Sequence: CCGGCAUGAGGAUAUCCAUCUGGAUCAGACUAGAUCCUGAUGGAGAAGGCACAUGAGGAUCACCCAUGUUACGG [Eli 4x 4.38] (Eterna round: R97, puzzle: Exclusion 4)
- apparent KD of MS2 coat protein (input ligand: FMN 200 uM): 51.2 nM
- apparent KD of MS2 coat protein (input ligand: none): 173 nM

Sequence: CCGGCUUAGCAGGAUAUAGGAGUCGAUAGACACCUAGAAGGGCUAACAUGAGGAUCACCCAUGUGUCCUACCGG [Fiskers Ex 6 - 100] (puzzle: Exclusion 6)
- apparent KD of MS2 coat protein [1]: 65 nM
- apparent KD of MS2 coat protein [2]: 25.9 nM
- apparent KD of MS2 coat protein [3]: 30.7 nM

Sequence: CCGGCUUAGCAGGAUAUAGGAGUCGAUAGACACCUAGAAGGGCUAACAUGAGGAUCACCCAUGUGUCCUACCGG [Mod of Eli 2 - Jieux - Exclusion 6] (Eterna round: R97, puzzle: Exclusion 6)
- apparent KD of MS2 coat protein (input ligand: FMN 200 uM): 102 nM
- apparent KD of MS2 coat protein (input ligand: none): 47.6 nM

Sequence: CCGGCUUAGGAGGAUAUAGGAGUCGAAAGACACCUAGAAGGCCUAACAUGAGGAUCACCCAUGUGUCCUACCGG [Mod of Eli 6 - Jieux - Exclusion 6] (Eterna round: R97, puzzle: Exclusion 6)
- apparent KD of MS2 coat protein (input ligand: FMN 200 uM): 78.4 nM
- apparent KD of MS2 coat protein (input ligand: none): 24 nM

Sequence: CCGUCACAUGAGGAUCACCCAUGUCAGGAUAUCUCAGUGCAUCCACACGGACGCAUCAAGAGAAGGGACAAAAC [Vinxlusion 6 - Jieux - Exclusion 1] (Eterna round: R97, puzzle: Exclusion 1)
- apparent KD of MS2 coat protein (input ligand: FMN 200 uM): 47.9 nM
- apparent KD of MS2 coat protein (input ligand: none): 34.8 nM

Sequence: CCGUGUUUAGGAUAUGCUAUGGAAGUGUUAAUAUUCAUUAGACAUGAGGAUCACCCAUGUAGAAGGAGGCCGCG [Eternabot (L1) Solution 96] (Eterna round: R97, puzzle: Exclusion 2)
- apparent KD of MS2 coat protein (input ligand: FMN 200 uM): 340 nM
- apparent KD of MS2 coat protein (input ligand: none): 142 nM

Sequence: CCGUUAUGAGGAUAUCGCUUGAAAGACAUGAGGAUCACCCAUGUGGGCGCGUCCUCAUGGCGAGAAGGCAUUACGA [Enmaatama] (puzzle: Exclusion 5)
- apparent KD of MS2 coat protein [1]: 9.07 nM
- apparent KD of MS2 coat protein [2]: 13.1 nM
- apparent KD of MS2 coat protein [3]: 12.6 nM

Sequence: CCUACUCAGCGAGGAUAUGUAACGGUGACUAGGGACGUCUACAUGAGGAUCACCCAUGUGACUAAGCAGAAGGCGCAGAGCCCA [Learve] (Eterna round: R96, puzzle: Exclusion NG 2)
- apparent KD of MS2 coat protein (input ligand: FMN 200 uM): 54.2 nM
- apparent KD of MS2 coat protein [4]: 33.1 nM
- apparent KD of MS2 coat protein (input ligand: none): 47.7 nM

Sequence: CCUCAGUAAGGAUAUCAGCUUAUGGAGUUGGUAAUGAGAGCUGAGAAGGUACAUGAGGAUCACCCAUGUUAGUU [JL Zatite mod 2] (puzzle: Exclusion 4)
- apparent KD of MS2 coat protein [2]: 25.4 nM

Sequence: CCUCAGUCACAGGAUAUGCUCAUCUAAUGAUGAGCAGAAGGGUGAACAUGAGGAUCACCCAUGUUUACGAGGGU [Omei Ex6 E7] (Eterna round: R97, puzzle: Exclusion 6)
- apparent KD of MS2 coat protein (input ligand: FMN 200 uM): 407 nM
- apparent KD of MS2 coat protein (input ligand: none): 555 nM

Sequence: CCUCCCUGAGGAUAUCCACCCUCAUACAUGAGGAUCACCCAUGUUCAUCCGUGGGUACCCGGAGAAGGCAGAUUUC [Megrez-a] (Eterna round: R97, puzzle: Exclusion 5)
- apparent KD of MS2 coat protein (input ligand: FMN 200 uM): 41.9 nM
- apparent KD of MS2 coat protein (input ligand: none): 33.1 nM

Sequence: CCUCGACAUGAGGAUCACCCAUGUAAGGAUAUGUUGACGAGCCUGAAAAGGCUGGUCAACAGAAGGUAUAUGUA [Exclusion 1 (Mod 1b.1 solution 16 by Eternabot)] (Eterna round: R97, puzzle: Exclusion 1)
- apparent KD of MS2 coat protein (input ligand: FMN 200 uM): 112 nM
- apparent KD of MS2 coat protein (input ligand: none): 28.4 nM

Sequence: CCUCGUAACUAGGAUAUCCGAAAUAAGCGAGGAGGAGAAGGAGUUACAUGAGGAUCACCCAUGUGAUAUAAAGA [Orisxe] (puzzle: Exclusion 6)
- apparent KD of MS2 coat protein [1]: 46.9 nM
- apparent KD of MS2 coat protein [2]: 15.5 nM
- apparent KD of MS2 coat protein [3]: 17.4 nM

Sequence: CCUCUACAUGAGGAUCACCCAUGUGAGGAUAUCUCGGAGCAGCCACUUAAAGCACUCCAGAGAAGGCACGUGUA [Mavemain] (puzzle: Exclusion 1)
- apparent KD of MS2 coat protein [2]: 15.5 nM

Sequence: CCUGCACAUGAGGAUCACCCAUGUCAGGAUAUCUCGCCGUGAAGAGCAACACGGUAUUAGAGAAGGGACACGGG [Tixe] (puzzle: Exclusion 1)
- apparent KD of MS2 coat protein [2]: 20.7 nM

Sequence: CCUGCACAUGAGGAUCACCCAUGUCAGGAUAUCUCGCCGUGUGGAGCAACACGGUAUAAGAGAAGGGACACGGG [Gegexeusre] (puzzle: Exclusion 1)
- apparent KD of MS2 coat protein [2]: 22.8 nM

Sequence: CCUGCGGACAAAGGAUAUUGCGGUGGCCGGCUCGGCGUACCGAGCCUACAUGAGGAUCACCCAUGUAAGAAGGUUGUCGUUGGA [Mat - Exclusion NG 2 - Mod of JL - D71] (Eterna round: R96, puzzle: Exclusion NG 2)
- apparent KD of MS2 coat protein (input ligand: FMN 200 uM): 228 nM
- apparent KD of MS2 coat protein [4]: 27 nM
- apparent KD of MS2 coat protein (input ligand: none): 40.1 nM

Sequence: CCUGGGUCAUCGCCCAGGAACAACAUGAGGAUCACCCAUGUCUAGGAUAUCCACCAGUCAAUAAAGGAGAAGGAGACGGUGGUU [Enusonor] (Eterna round: R96, puzzle: Exclusion NG 3)
- apparent KD of MS2 coat protein (input ligand: FMN 200 uM): 22.9 nM
- apparent KD of MS2 coat protein [4]: 14.6 nM
- apparent KD of MS2 coat protein (input ligand: none): 21.2 nM

Sequence: CCUUACCGAGGAUAUACAUGAGGAUCACCCAUGUGAUCCUAAGGCUGAUCAAGCCUAUGUAGAAGGCGCAAAUC [salish99_ex3_r4_004] (Eterna round: R97, puzzle: Exclusion 3)
- apparent KD of MS2 coat protein (input ligand: FMN 200 uM): 160 nM
- apparent KD of MS2 coat protein (input ligand: none): 130 nM

Sequence: CCUUCCCGAGGAUAUACAUGAGGAUCACCCAUGUGAUCCUAAGGCUGAUCAAGCCUAUGUAGAAGGCGCAAAUC [salish99_ex3_r4_006] (Eterna round: R97, puzzle: Exclusion 3)
- apparent KD of MS2 coat protein (input ligand: FMN 200 uM): 35.1 nM
- apparent KD of MS2 coat protein (input ligand: none): 38.4 nM

Sequence: CCUUGUGUUGAGGAUAUGCGCCGGCUCGCUGGCGCAGAAGGCGGCACAUGAGGAUCACCCAUGUCAGUUCGCGA [salish99_ex6_r004_012] (Eterna round: R97, puzzle: Exclusion 6)
- apparent KD of MS2 coat protein (input ligand: FMN 200 uM): 336 nM
- apparent KD of MS2 coat protein (input ligand: none): 29.2 nM

Sequence: CGAUAAAAGACAGGAUAUGAGGAGAGAGAGAGAUCAGAAGGGUCACAUGAGGAUCACCCAUGUGAGUUCUCGAAAUUAAAUAUU [Prohibition 50 - Jieux - Exclusion NG 1] (Eterna round: R96, puzzle: Exclusion NG 1)
- apparent KD of MS2 coat protein (input ligand: FMN 200 uM): 18.8 nM
- apparent KD of MS2 coat protein [4]: 14.2 nM
- apparent KD of MS2 coat protein (input ligand: none): 18.8 nM

Sequence: CGAUAAAAGACAGGAUAUGAGGAGAGAGAGAGAUCAGAAGGGUCACAUGAGGAUCACCCAUGUGAGUUCUCGAUAAGAAACACC [Prohibition 53 - Jieux - Exclusion NG 1] (Eterna round: R96, puzzle: Exclusion NG 1)
- apparent KD of MS2 coat protein (input ligand: FMN 200 uM): 13.8 nM
- apparent KD of MS2 coat protein [4]: 14.5 nM
- apparent KD of MS2 coat protein (input ligand: none): 19.3 nM

Sequence: CGAUGCUCGAGUCGACAUGAGGAUCACCCAUGUACAGUUAGUGAGGAUAUCGGAGACACAUAGUAUGAGAAGGCGCGAACGUGA [Ex NG3 #16] (Eterna round: R96, puzzle: Exclusion NG 3)
- apparent KD of MS2 coat protein (input ligand: FMN 200 uM): 76.7 nM
- apparent KD of MS2 coat protein [4]: 41.4 nM
- apparent KD of MS2 coat protein (input ligand: none): 40.3 nM

Sequence: CGCCCUCCGGUGAGGAUAUUGCCCACCAUGGUCGGCAAGAAGGCACUUGAGGAUCACCCAAGUAAAACAAAUAA [Beraus] (Eterna round: R97, puzzle: Brourd's mod of Exclusion 4)
- apparent KD of MS2 coat protein (input ligand: FMN 200 uM): 450 nM
- apparent KD of MS2 coat protein (input ligand: none): 34.8 nM

Sequence: CGCCUGUAAGGAUAUUAGUAGUAGUCAGAAUAGACUAUUACUGAGAAGGUACAUGAGGAUCACCCAUGUUGGCG [Eli x4 4.10] (Eterna round: R97, puzzle: Exclusion 4)
- apparent KD of MS2 coat protein (input ligand: FMN 200 uM): 19.7 nM
- apparent KD of MS2 coat protein (input ligand: none): 18.5 nM

Sequence: CGCCUGUGAGGAUAUUAGUAGUAGUCAGAAAAGACUAUUACUGAGAAGGUACAUGAGGAUCACCCAUGUUGGCG [Mat - Exclusion 4 - Eli Mod - D41] (Eterna round: R97, puzzle: Exclusion 4)
- apparent KD of MS2 coat protein (input ligand: FMN 200 uM): 14.8 nM
- apparent KD of MS2 coat protein (input ligand: none): 20 nM

Sequence: CGCUAGUCAGGAUAUACGAACAUGUCAAAAGACGUGAAGGGACAUGAGGAUCACCCAUGUAGAAGGGACUAGCA [salish99_ex2_r3_014] (Eterna round: R96, puzzle: Exclusion 2)
- apparent KD of MS2 coat protein (input ligand: FMN 200 uM): 165 nM
- apparent KD of MS2 coat protein [4]: 22.2 nM
- apparent KD of MS2 coat protein (input ligand: none): 31.5 nM

Sequence: CGCUAGUCAGGAUAUACGAACAUGUCAAAAGACGUGAAGGGACAUGAGGAUCACCCAUGUAGAAGGGACUAGCA [salish99_ex2_r3_014] (puzzle: Exclusion 2)
- apparent KD of MS2 coat protein [1]: 147 nM
- apparent KD of MS2 coat protein [2]: 22.5 nM
- apparent KD of MS2 coat protein [3]: 24.9 nM

Sequence: CGCUGGACAGGAUAUGUUCUUGGGCACUUGAGGAUCACCCAAGUCAUCAAGACAACAGGCACAGAAGGGUUUAUGG [salish99_ex5_r4_023] (Eterna round: R97, puzzle: Exclusion 5)
- apparent KD of MS2 coat protein (input ligand: FMN 200 uM): 20.6 nM
- apparent KD of MS2 coat protein (input ligand: none): 18.4 nM

Sequence: CGCUGGACAGGAUAUGUUCUUGGGCACUUGAGGAUCACCCAAGUCAUCGGGACAUCAGGCACAGAAGGGUUUUUGG [salish99_ex5_r4_027] (Eterna round: R97, puzzle: Exclusion 5)
- apparent KD of MS2 coat protein (input ligand: FMN 200 uM): 18 nM
- apparent KD of MS2 coat protein (input ligand: none): 20.5 nM

Sequence: CGCUGGACAGGAUAUGUUUUUGGGCACUUGAGGAUCACCCAAGUCAUCAAGAAAACAGGCACAGAAGGGUUUAUGG [salish99_ex5_r4_022(!)] (Eterna round: R97, puzzle: Exclusion 5)
- apparent KD of MS2 coat protein (input ligand: FMN 200 uM): 28 nM
- apparent KD of MS2 coat protein (input ligand: none): 25.1 nM

Sequence: CGGAGCAGAGGGAGAUCCAACAUGAGGAUCACCCAUGUCUCACAAGCUUUUUGCUCGUCUUAUUGUACCUUGGUGCU [JL ViennaUCT Edcesobi mod 7] (puzzle: Sensor v3, turn-off variant 1)
- apparent KD of MS2 coat protein [1]: 64.5 nM
- apparent KD of MS2 coat protein [2]: 11.1 nM
- apparent KD of MS2 coat protein [3]: 49.1 nM
